Consider 15 molecules from patent US20240376170A1 (BRIGHT PEAK THERAPEUTICS, published 2024).

B1: CMP-315, MMP2 cleaved molecule (ligand)
chain: APTSSSTKKTQLQLEHLLLDLQKILNGINNYKNPKLTR[Nle]L[hSer]Y(9x polyethylene glycol‑azido)KFY(8x polyethylene glycol‑amino)[Nle]PKKATELKHLQCLEEELKPLEEVL[hSer]LAQSKNFHLRPRDLISNINVIVLELKGSETTF[hSer]CEYADETATIVEFLNRWITFSQSIISTLT
modifications: also: K23 side chain attached to another sequence, m89 after MMP2 cleavage, product not given here as a sequence
B2: CMP-313, uPa cleaved molecule (ligand)
chain: APTSSSTKKTQLQLEHLLLDLQKILNGINNYKNPKLTR[Nle]L[hSer]Y(9x polyethylene glycol‑azido)KFY(8x polyethylene glycol‑amino)[Nle]PKKATELKHLQCLEEELKPLEEVL[hSer]LAQSKNFHLRPRDLISNINVIVLELKGSETTF[hSer]CEYADETATIVEFLNRWITFSQSIISTLT
modifications: also: K23 side chain attached to another sequence, m81 after uPa cleavage, product not given here as a sequence
B3: CMP-315, Matriptase cleaved molecule (ligand)
chain: APTSSSTKKTQLQLEHLLLDLQKILNGINNYKNPKLTR[Nle]L[hSer]Y(9x polyethylene glycol‑azido)KFY(8x polyethylene glycol‑amino)[Nle]PKKATELKHLQCLEEELKPLEEVL[hSer]LAQSKNFHLRPRDLISNINVIVLELKGSETTF[hSer]CEYADETATIVEFLNRWITFSQSIISTLT
modifications: also: matriptase cleavage product, not given here as a sequence, Lys23 side-chain attachment remnant unknown
B4: CMP-311, Matriptase cleaved molecule (ligand)
chain: APTSSSTKKTQLQLEHLLLDLQKILNGINNYKNPKLTR[Nle]L[hSer][Yn3]KF[Ygp][Nle]PKKATELKHLQCLEEELKPLEEVL[hSer]LAQSKNFHLRPRDLISNINVIVLELKGSETTF[hSer]CEYADETATIVEFLNRWITFSQSIISTLT
modifications: also: m77 after matriptase cleavage: Lys23 side-chain branch (cleavable peptide) cut, remnant not given here
B5: CMP-313, Matriptase cleaved molecule (ligand)
chain: APTSSSTKKTQLQLEHLLLDLQKILNGINNYKNPKLTR[Nle]L[hSer][Yn3]KF[Ygp][Nle]PKKATELKHLQCLEEELKPLEEVL[hSer]LAQSKNFHLRPRDLISNINVIVLELKGSETTF[hSer]CEYADETATIVEFLNRWITFSQSIISTLT
modifications: also: m81 after matriptase cleavage: Lys23 side-chain branch (cleavable peptide) cut, remnant not given here
B6: CMP-310, uPa cleaved molecule (ligand)
chain: APTSSSTKKTQLQLEHLLLDLQKILNGINNYKNPKLTR[Nle]L[hSer][Yn3]KF[Ygp][Nle]PKKATELKHLQCLEEELKPLEEVL[hSer]LAQSKNFHLRPRDLISNINVIVLELKGSETTF[hSer]CEYADETATIVEFLNRWITFSQSIISTLT
modifications: also: m73 after uPa cleavage: Lys23 side-chain branch (cleavable peptide) cut, remnant not given here
B7: CMP-310, MMP2 cleaved molecule (ligand)
chain: APTSSSTKKTQLQLEHLLLDLQKILNGINNYKNPKLTR[Nle]L[hSer][Yn3]KF[Ygp][Nle]PKKATELKHLQCLEEELKPLEEVL[hSer]LAQSKNFHLRPRDLISNINVIVLELKGSETTF[hSer]CEYADETATIVEFLNRWITFSQSIISTLT
modifications: also: m73 after MMP2 cleavage: Lys23 side-chain branch (cleavable peptide) cut, remnant not given here
B8: CMP-315, uPa cleaved molecule (ligand)
chain: APTSSSTKKTQLQLEHLLLDLQKILNGINNYKNPKLTR[Nle]L[hSer]Y(9x polyethylene glycol‑azido)KFY(8x polyethylene glycol‑amino)[Nle]PKKATELKHLQCLEEELKPLEEVL[hSer]LAQSKNFHLRPRDLISNINVIVLELKGSETTF[hSer]CEYADETATIVEFLNRWITFSQSIISTLT
modifications: also: uPa cleavage product, not given here as a sequence, Lys23 side-chain attachment remnant unknown
B9: CMP-310, Matriptase cleaved molecule (ligand)
chain: APTSSSTKKTQLQLEHLLLDLQKILNGINNYKNPKLTR[Nle]L[hSer][Yn3]KF[Ygp][Nle]PKKATELKHLQCLEEELKPLEEVL[hSer]LAQSKNFHLRPRDLISNINVIVLELKGSETTF[hSer]CEYADETATIVEFLNRWITFSQSIISTLT
modifications: also: m73 after matriptase cleavage: Lys23 side-chain branch (cleavable peptide) cut, remnant not given here
B10: CMP-311, uPa cleaved molecule (ligand)
chain: APTSSSTKKTQLQLEHLLLDLQKILNGINNYKNPKLTR[Nle]L[hSer][Yn3]KF[Ygp][Nle]PKKATELKHLQCLEEELKPLEEVL[hSer]LAQSKNFHLRPRDLISNINVIVLELKGSETTF[hSer]CEYADETATIVEFLNRWITFSQSIISTLT
modifications: also: m77 after uPa cleavage: Lys23 side-chain branch (cleavable peptide) cut, remnant not given here
B11: CMP-314, uPa cleaved molecule (ligand)
chain: APTSSSTKKTQLQLEHLLLDLQKILNGINNYKNPKLTR[Nle]L[hSer]Y(9x polyethylene glycol‑azido)KFY(8x polyethylene glycol‑amino)[Nle]PKKATELKHLQCLEEELKPLEEVL[hSer]LAQSKNFHLRPRDLISNINVIVLELKGSETTF[hSer]CEYADETATIVEFLNRWITFSQSIISTLT
modifications: also: uPa cleavage product, not given here as a sequence, Lys23 side-chain attachment remnant unknown
B12: CMP-314, Matriptase cleaved molecule (ligand)
chain: APTSSSTKKTQLQLEHLLLDLQKILNGINNYKNPKLTR[Nle]L[hSer]Y(9x polyethylene glycol‑azido)KFY(8x polyethylene glycol‑amino)[Nle]PKKATELKHLQCLEEELKPLEEVL[hSer]LAQSKNFHLRPRDLISNINVIVLELKGSETTF[hSer]CEYADETATIVEFLNRWITFSQSIISTLT
modifications: also: matriptase cleavage product, not given here as a sequence, Lys23 side-chain attachment remnant unknown
B13: CMP-311, MMP2 cleaved molecule (ligand)
chain: APTSSSTKKTQLQLEHLLLDLQKILNGINNYKNPKLTR[Nle]L[hSer][Yn3]KF[Ygp][Nle]PKKATELKHLQCLEEELKPLEEVL[hSer]LAQSKNFHLRPRDLISNINVIVLELKGSETTF[hSer]CEYADETATIVEFLNRWITFSQSIISTLT
modifications: also: m77 after MMP2 cleavage: Lys23 side-chain branch (cleavable peptide) cut, remnant not given here
B14: CMP-313, MMP2 cleaved molecule (ligand)
chain: APTSSSTKKTQLQLEHLLLDLQKILNGINNYKNPKLTR[Nle]L[hSer][Yn3]KF[Ygp][Nle]PKKATELKHLQCLEEELKPLEEVL[hSer]LAQSKNFHLRPRDLISNINVIVLELKGSETTF[hSer]CEYADETATIVEFLNRWITFSQSIISTLT
modifications: also: m81 after MMP2 cleavage: Lys23 side-chain branch (cleavable peptide) cut, remnant not given here
B15: CMP-314, MMP2 cleaved molecule (ligand)
chain: APTSSSTKKTQLQLEHLLLDLQKILNGINNYKNPKLTR[Nle]L[hSer]Y(9x polyethylene glycol‑azido)KFY(8x polyethylene glycol‑amino)[Nle]PKKATELKHLQCLEEELKPLEEVL[hSer]LAQSKNFHLRPRDLISNINVIVLELKGSETTF[hSer]CEYADETATIVEFLNRWITFSQSIISTLT
modifications: also: K23 side chain attached to another sequence, m85 after MMP2 cleavage, product not given here as a sequence

[ ]: non-standard residue; d: D form. 8x polyethylene glycol‑amino = O-(8x polyethylene glycol-amino)-tyrosine, SITE 45; 9x polyethylene glycol‑azido = O-(9x polyethylene glycol-azido)-tyrosine, SITE 42; Ygp = O-(8x polyethylene glycol-amino)-tyrosine (Tyr, amino-capped PEG8); Yn3 = O-(9x polyethylene glycol-azido)-tyrosine (Tyr, azide-capped PEG9); hSer = N[C@@H](CCO)C(=O)O; Nle = CCCC[C@H](N)C(=O)O

The target in this experiment is T1, IL-2 receptor βγ complex (human, UniProt P14784 27-551; P31785 23-369).
T1 sequence (looked up) 1: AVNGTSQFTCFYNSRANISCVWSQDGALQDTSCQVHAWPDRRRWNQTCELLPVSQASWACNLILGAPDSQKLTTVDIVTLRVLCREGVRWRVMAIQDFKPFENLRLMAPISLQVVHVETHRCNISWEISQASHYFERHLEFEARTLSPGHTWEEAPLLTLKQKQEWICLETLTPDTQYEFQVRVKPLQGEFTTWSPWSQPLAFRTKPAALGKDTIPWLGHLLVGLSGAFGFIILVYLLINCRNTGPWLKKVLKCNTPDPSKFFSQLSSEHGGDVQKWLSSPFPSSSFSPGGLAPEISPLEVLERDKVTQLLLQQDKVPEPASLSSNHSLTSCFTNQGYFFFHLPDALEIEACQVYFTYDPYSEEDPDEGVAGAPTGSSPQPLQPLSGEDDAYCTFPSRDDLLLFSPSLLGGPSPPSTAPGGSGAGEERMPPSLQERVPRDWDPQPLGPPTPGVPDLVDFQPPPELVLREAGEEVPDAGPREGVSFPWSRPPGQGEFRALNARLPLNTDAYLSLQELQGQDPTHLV
T1 sequence (looked up) 2: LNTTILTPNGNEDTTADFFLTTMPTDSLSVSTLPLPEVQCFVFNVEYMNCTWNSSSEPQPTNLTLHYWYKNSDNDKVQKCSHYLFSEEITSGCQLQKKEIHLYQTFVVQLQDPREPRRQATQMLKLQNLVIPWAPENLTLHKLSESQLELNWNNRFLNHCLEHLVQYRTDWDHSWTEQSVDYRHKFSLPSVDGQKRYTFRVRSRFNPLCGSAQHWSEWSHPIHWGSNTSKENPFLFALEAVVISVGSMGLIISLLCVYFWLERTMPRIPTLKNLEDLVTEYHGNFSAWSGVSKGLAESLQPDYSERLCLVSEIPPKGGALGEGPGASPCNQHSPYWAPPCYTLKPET
In words: cell-based or functional assay.
Consider B1, for which the “Average EC50, pSTAT5 Assay in NK cells” value is 0.369 nM.

On to B2, for which the “Average EC50, pSTAT5 Assay in NK cells” value came out at 81 pM.

B3: the “Average EC50, pSTAT5 Assay in NK cells” value was determined as 0.387 nM.

For B4, the “Average EC50, pSTAT5 Assay in NK cells” value came out at 0.512 nM.

Take B5: the “Average EC50, pSTAT5 Assay in NK cells” value was found to be 0.714 nM.

B6: the “Average EC50, pSTAT5 Assay in NK cells” value is 6.79 nM.

Take B7: the “Average EC50, pSTAT5 Assay in NK cells” value stood at 4.07 nM.

Consider B8, for which the “Average EC50, pSTAT5 Assay in NK cells” value came to 0.335 nM.

Turning to B9, the “Average EC50, pSTAT5 Assay in NK cells” value was 6.9 nM.

B10: the “Average EC50, pSTAT5 Assay in NK cells” value was 0.548 nM.

With B11, the “Average EC50, pSTAT5 Assay in NK cells” value worked out at 65 pM.

For B12, the “Average EC50, pSTAT5 Assay in NK cells” value is 0.117 nM.

Consider B13, for which the “Average EC50, pSTAT5 Assay in NK cells” value amounted to 73 pM.

Consider B14, for which the “Average EC50, pSTAT5 Assay in NK cells” value came out at 35 pM.

On to B15, for which the “Average EC50, pSTAT5 Assay in NK cells” value worked out at 40 pM.
